Measurements reported in patent publication US20210270842A1.

Target: plasma kallikrein (human) (UniProt P03952)
Assay: cell-based or functional assay

Sequence of plasma kallikrein (human) (P03952 20-638 limits assumed): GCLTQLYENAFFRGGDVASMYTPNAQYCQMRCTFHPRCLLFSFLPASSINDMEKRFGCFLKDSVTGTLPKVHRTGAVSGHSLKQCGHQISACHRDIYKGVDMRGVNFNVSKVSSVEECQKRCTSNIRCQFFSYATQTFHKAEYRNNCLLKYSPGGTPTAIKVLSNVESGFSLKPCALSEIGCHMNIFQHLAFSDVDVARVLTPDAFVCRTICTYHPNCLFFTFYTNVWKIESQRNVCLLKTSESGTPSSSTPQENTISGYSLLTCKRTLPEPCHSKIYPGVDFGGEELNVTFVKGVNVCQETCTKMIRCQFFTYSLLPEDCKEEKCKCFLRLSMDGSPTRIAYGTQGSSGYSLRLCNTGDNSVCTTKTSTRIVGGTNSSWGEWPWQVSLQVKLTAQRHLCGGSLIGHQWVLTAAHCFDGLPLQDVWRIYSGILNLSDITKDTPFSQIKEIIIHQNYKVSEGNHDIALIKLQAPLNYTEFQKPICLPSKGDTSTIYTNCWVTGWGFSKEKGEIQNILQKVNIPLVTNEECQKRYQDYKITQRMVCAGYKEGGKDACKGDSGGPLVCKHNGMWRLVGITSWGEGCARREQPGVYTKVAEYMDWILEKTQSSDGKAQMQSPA

B1: lanadelumab (antibody, V domains shown)
VH: EVQLLESGGGLVQPGGSLRLSCAASGFTFSHYIMMWVRQAPGKGLEWVSGIYSSGGITVYADSVKGRFTISRDNSKNTLYLQMNSLRAEDTAVYYCAYRRIGVPRRDEFDIWGQGTMVTVSS
VL: DIQMTQSPSTLSASVGDRVTITCRASQSISSWLAWYQQKPGKAPKLLIYKASTLESGVPSRFSGSGSGTEFTLTISSLQPDDFATYYCQQYNTYWTFGQGTKVEI
IC50 for lanadelumab inhibition of 2-chain HMWK generation (FXIIa-activated citrated plasma, Western blot and sandwich ELISA): 212 nM
